Source: US20250320281A1

Assays:
Test in all cases: cell-based or functional assay
[1] = biological target: HIV-1 Env of isolate MGRM-F1-016 (clade F), on pseudovirus (HIV-1)
[2] = biological target: HIV-1 Env of isolate MG RM-D-012 (clade D), on pseudovirus (HIV-1)
[3] = biological target: HIV-1 Env of isolate MG RM-D-004 (clade D), on pseudovirus (HIV-1)
[4] = biological target: HIV-1 Env of isolate MG RM-D-011 (clade D), on pseudovirus (HIV-1)
[5] = biological target: HIV-1 Env of isolate MGRM-F1-020 (clade F pseudovirus) (HIV-1)
[6] = biological target: HIV-1 Env of isolate MGRM-Chronic-B-010 (HIV-1)
[7] = biological target: HIV-1 Env of pseudovirus 92WR009 (subtype A) (HIV-1)
[8] = biological target: HIV-1 Env of isolate MGRM-F1-010 (clade F), on pseudovirus (HIV-1)
[9] = biological target: HIV-1 Env of isolate MGRM-F1-018 (clade F pseudovirus) (HIV-1)
[10] = biological target: HIV-1 Env of isolate 92UG046 (clade D), on pseudovirus (HIV-1)
[11] = biological target: HIV-1 Env of isolate MG RM-D-005 (clade D), on pseudovirus (HIV-1)
[12] = biological target: HIV-1 Env of isolate MGRM-F1-004 (clade F), on pseudovirus (HIV-1)
[13] = biological target: HIV-1 Env of isolate MG RM-D-020 (clade D), on pseudovirus (HIV-1)
[14] = biological target: HIV-1 92TH021 envelope glycoprotein (Env) on pseudovirus (HIV-1 isolate 92TH021 (clade AE))
[15] = biological target: HIV-1 Env of isolate MG RM-D-013 (clade D), on pseudovirus (HIV-1)
[16] = biological target: HIV-1 Env of isolate MGRM-Chronic-B-002 (HIV-1)
[17] = biological target: HIV-1 Env of pseudovirus MGRM-A-005 (subtype A) (HIV-1)
[18] = biological target: HIV-1 Env of isolate MGRM-Chronic-B-004 (HIV-1)
[19] = biological target: HIV-1 Env of isolate MG RM-D-026 (clade D), on pseudovirus (HIV-1)
[20] = biological target: HIV-1 Env of isolate MGRM-Chronic-B-017 (HIV-1)
[21] = biological target: HIV-1 Env of isolate MG RM-D-008 (clade D), on pseudovirus (HIV-1)
[22] = biological target: HIV-1 Env of isolate APV17 (HIV-1)
[23] = biological target: HIV-1 Env of isolate MG RM-D-003 (clade D), on pseudovirus (HIV-1)
[24] = biological target: HIV-1 92RW020 Env (HIV-1 92RW020)
[25] = biological target: HIV-1 Env of pseudovirus MGRM-A-003 (subtype A) (HIV-1)
[26] = biological target: HIV-1 Env of isolate MGRM-C-025 (clade C pseudovirus) (HIV-1)
[27] = biological target: HIV-1 Env of pseudovirus 92WR026 (subtype A) (HIV-1)
[28] = biological target: HIV-1 Env of isolate CAAN.A2 (HIV-1)
[29] = biological target: HIV-1 Env of isolate MGRM-F1-006 (clade F), on pseudovirus (HIV-1)
[30] = biological target: HIV-1 SF162 Env on pseudotyped virus (HIV-1 isolate SF162)
[31] = biological target: HIV-1 MGRM-C-027 Env (HIV-1)
[32] = biological target: HIV-1 APV17 Env (pseudovirus) (HIV-1 isolate APV17 (clade B))
[33] = biological target: HIV-1 MGRM-D-001 envelope glycoprotein (Env) on pseudovirus (HIV-1)
[34] = biological target: HIV-1 MGRM-AG-005 envelope glycoprotein (Env) on pseudovirus (HIV-1)
[35] = biological target: HIV-1 JRFL envelope glycoprotein (Env) on pseudovirus (HIV-1)
[36] = biological target: HIV-1 MGRM-C-026 envelope glycoprotein (Env) on pseudovirus (HIV-1)
[37] = biological target: HIV-1 MGRM-A-010 envelope glycoprotein (Env) on pseudovirus (HIV-1)
[38] = biological target: HIV-1 MGRM-C-027 envelope glycoprotein (Env) on pseudovirus (HIV-1)

Chain of 1443_C16 (PG16) (TCN-116) (antibody) (VH): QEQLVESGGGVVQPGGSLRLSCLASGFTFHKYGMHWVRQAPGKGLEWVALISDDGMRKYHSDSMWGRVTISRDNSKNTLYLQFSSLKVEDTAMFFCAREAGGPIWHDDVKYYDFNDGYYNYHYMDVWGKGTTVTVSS
Chain of 1443_C16 (PG16) (TCN-116) (antibody) (VL): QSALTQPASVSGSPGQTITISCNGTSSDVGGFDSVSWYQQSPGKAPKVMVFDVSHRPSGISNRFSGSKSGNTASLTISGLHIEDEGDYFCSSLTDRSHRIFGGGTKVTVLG

1496_C09 (PG9) (TCN-109) (antibody)
IC50 (µg/mL), pseudovirus neutralization [1]: 0.518 µg/mL
IC50 (µg/mL), pseudovirus neutralization [2]: 16.2 µg/mL
IC50 (µg/mL), pseudovirus neutralization [3]: 0.06 µg/mL
IC50 (µg/mL), pseudovirus neutralization [4]: 0.071 µg/mL
IC50 (µg/mL), pseudovirus neutralization [5]: 6.4 µg/mL
IC50 (µg/mL), pseudovirus neutralization [6]: 0.004 µg/mL
IC50, pseudovirus neutralization [7]: 0.05 µg/mL
IC50 (µg/mL), pseudovirus neutralization [8]: 0.012 µg/mL
IC50 (µg/mL), pseudovirus neutralization [9]: 0.019 µg/mL
IC50 (µg/mL), pseudovirus neutralization [10]: 1.86 µg/mL
IC50 (µg/mL), pseudovirus neutralization [11]: 1.8 µg/mL
IC50 (µg/mL), pseudovirus neutralization [12]: 0.175 µg/mL
IC50 (µg/mL), pseudovirus neutralization [13]: 1.67 µg/mL
neutralization IC50 [14]: 0.103 µg/mL
neutralization IC80 [14]: 0.448 µg/mL
neutralization IC90 [14]: 1.07 µg/mL
neutralization IC95 [14]: 2.43 µg/mL
IC50 (µg/mL), pseudovirus neutralization [15]: 0.021 µg/mL
IC50 (µg/mL), pseudovirus neutralization [16]: 3.44 µg/mL
IC50, pseudovirus neutralization [17]: 0.75 µg/mL
IC50 (µg/mL), pseudovirus neutralization [18]: 0.533 µg/mL
IC50 (µg/mL), pseudovirus neutralization [19]: 23.7 µg/mL
IC50 (µg/mL), pseudovirus neutralization [20]: 0.688 µg/mL
IC50 (µg/mL), pseudovirus neutralization [21]: 11.5 µg/mL
IC50 (µg/mL), pseudovirus neutralization [22]: 34.8 µg/mL
IC50 (µg/mL), pseudovirus neutralization [23]: 0.033 µg/mL
IC50 (ug/ml), pseudovirus neutralization, TZM-bl assay [24]: 0.1 µg/mL
IC50, pseudovirus neutralization [25]: 1.94 µg/mL
IC50 (µg/mL), pseudovirus neutralization [26]: 0.148 µg/mL
IC50, pseudovirus neutralization [27]: 0.164 µg/mL
IC50 (µg/mL), pseudovirus neutralization [28]: 19.3 µg/mL
IC50 (µg/mL), pseudovirus neutralization [29]: 7.25 µg/mL

1443_C16 (PG16) (TCN-116) (antibody)
Neutralizing Antibody Assay: IC50; Virus/Ab Incubation 1 hour [30]: > 50000 ng/mL
Neutralizing Antibody Assay: IC50; Virus/Ab Incubation 18 hour [30]: > 50 µg/mL
IC50 (ug/ml), pseudovirus neutralization, TZM-bl assay [24]: 0.09 µg/mL

4877_D15 (PGT-122) (antibody)
Neutralization by PGT-122, IC50 [31]: 0.0388 µg/mL
Neutralization by PGT-122, IC80 [31]: 0.499 µg/mL
Neutralization by PGT-122, IC90 [31]: > 10 µg/mL
Neutralization by PGT-122, IC95 [31]: > 10 µg/mL

PGV04 (antibody)
IC50 (µg/mL), pseudovirus neutralization [1]: 0.268 µg/mL
IC50 (µg/mL), pseudovirus neutralization [2]: 0.125 µg/mL
IC50 (µg/mL), pseudovirus neutralization [3]: 43.2 µg/mL
IC50 (µg/mL), pseudovirus neutralization [4]: 0.025 µg/mL
IC50 (µg/mL), pseudovirus neutralization [5]: 5.99 µg/mL
IC50 (µg/mL), pseudovirus neutralization [6]: 0.744 µg/mL
IC50, pseudovirus neutralization [7]: 0.108 µg/mL
IC50 (µg/mL), pseudovirus neutralization [8]: 0.184 µg/mL
IC50 (µg/mL), pseudovirus neutralization [9]: 0.027 µg/mL
IC50 (µg/mL), pseudovirus neutralization [10]: 22.4 µg/mL
IC50 (µg/mL), pseudovirus neutralization [11]: > 50 µg/mL
IC50 (µg/mL), pseudovirus neutralization [12]: 0.58 µg/mL
IC50 (µg/mL), pseudovirus neutralization [13]: 0.097 µg/mL
IC50 (µg/mL), pseudovirus neutralization [15]: 0.088 µg/mL
IC50 (µg/mL), pseudovirus neutralization [16]: 0.142 µg/mL
IC50, pseudovirus neutralization [17]: 0.134 µg/mL
IC50 (µg/mL), pseudovirus neutralization [18]: 0.047 µg/mL
IC50 (µg/mL), pseudovirus neutralization [19]: 1.76 µg/mL
IC50 (µg/mL), pseudovirus neutralization [20]: 0.129 µg/mL
IC50 (µg/mL), pseudovirus neutralization [21]: 3.56 µg/mL
IC50 (µg/mL), pseudovirus neutralization [22]: 0.309 µg/mL
IC50 (µg/mL), pseudovirus neutralization [23]: > 50 µg/mL
IC50, pseudovirus neutralization [25]: 0.128 µg/mL
IC50 (µg/mL), pseudovirus neutralization [26]: > 50 µg/mL
IC50, pseudovirus neutralization [27]: 0.14 µg/mL
IC50 (µg/mL), pseudovirus neutralization [28]: 2.26 µg/mL
IC50 (µg/mL), pseudovirus neutralization [29]: > 50 µg/mL

5123_A06 (PGT-125) (antibody)
Neutralization by PGT-125, IC50 [32]: 7.31 µg/mL
Neutralization by PGT-125, IC80 [32]: > 10 µg/mL
Neutralization by PGT-125, IC90 [32]: > 10 µg/mL
Neutralization by PGT-125, IC95 [32]: > 10 µg/mL

5141_B17 (PGT-126) (antibody)
IC50, pseudovirus neutralization [33]: 0.0639 µg/mL
IC80 (pseudovirus neutralization) [33]: 0.333 µg/mL
IC90 (pseudovirus neutralization) [33]: 0.832 µg/mL
IC95 (pseudovirus neutralization) [33]: 1.8 µg/mL
IC50, pseudovirus neutralization [34]: 1.35 µg/mL
IC80 (pseudovirus neutralization) [34]: > 10 µg/mL
IC90 (pseudovirus neutralization) [34]: > 10 µg/mL
IC95 (pseudovirus neutralization) [34]: > 10 µg/mL
IC50, pseudovirus neutralization [35]: 0.014 µg/mL
IC80 (pseudovirus neutralization) [35]: 0.0454 µg/mL
IC90 (pseudovirus neutralization) [35]: 0.09 µg/mL
IC95 (pseudovirus neutralization) [35]: 0.169 µg/mL
IC50, pseudovirus neutralization [36]: 7.6 ng/mL
IC80 (pseudovirus neutralization) [36]: 0.0345 µg/mL
IC90 (pseudovirus neutralization) [36]: 0.0831 µg/mL
IC95 (pseudovirus neutralization) [36]: 0.185 µg/mL
IC50, pseudovirus neutralization [37]: 3.3 ng/mL
IC80 (pseudovirus neutralization) [37]: 0.0137 µg/mL
IC90 (pseudovirus neutralization) [37]: 0.0316 µg/mL
IC95 (pseudovirus neutralization) [37]: 0.0687 µg/mL
IC50, pseudovirus neutralization [38]: 1.14 µg/mL
IC80 (pseudovirus neutralization) [38]: > 10 µg/mL
IC90 (pseudovirus neutralization) [38]: > 10 µg/mL
IC95 (pseudovirus neutralization) [38]: > 10 µg/mL

4858_P08 (PGT-123) (antibody)
neutralization IC50 [33]: 0.215 µg/mL
neutralization IC80 [33]: 0.678 µg/mL
neutralization IC90 [33]: 1.31 µg/mL
neutralization IC95 [33]: 2.33 µg/mL
neutralization IC50 [34]: 0.104 µg/mL
neutralization IC80 [34]: 1.28 µg/mL
neutralization IC90 [34]: 6.38 µg/mL
neutralization IC95 [34]: > 10 µg/mL
neutralization IC50 [35]: 0.0283 µg/mL
neutralization IC80 [35]: 0.0904 µg/mL
neutralization IC90 [35]: 0.178 µg/mL
neutralization IC95 [35]: 0.332 µg/mL
neutralization IC50 [36]: 3.1 ng/mL
neutralization IC80 [36]: 9.4 ng/mL
neutralization IC90 [36]: 0.0183 µg/mL
neutralization IC95 [36]: 0.0338 µg/mL
neutralization IC50 [37]: 0.492 µg/mL
neutralization IC80 [37]: 2.79 µg/mL
neutralization IC90 [37]: 6.44 µg/mL
neutralization IC95 [37]: > 10 µg/mL
neutralization IC50 [38]: 0.0169 µg/mL
neutralization IC80 [38]: 0.149 µg/mL
neutralization IC90 [38]: > 10 µg/mL
neutralization IC95 [38]: > 10 µg/mL

1495_C14 (PGC14) (antibody)
Neutralizing Antibody Assay: IC50; Virus/Ab Incubation 1 hour [30]: 6.9 ng/mL
Neutralizing Antibody Assay: IC50; Virus/Ab Incubation 18 hour [30]: < 0.0025 µg/mL
